Data: the Human Domainome abundance scans (Beltran et al. 2025)

B1: Mineralocorticoid receptor, residues 600 to 675; numbered along this chain, P08235 (parent)
chain: SKICLVCGDEASGCHYGVVTCGSCKVFFKRAVEGQHNYLCAGRNDCIIDKIRRKNCPACRLQKCLQAGMNLGARKS
B2: Ankyrin repeat and SAM domain-containing protein 6, residues 774 to 836; numbered along this chain, Q68DC2 (parent)
chain: DEDELTGILKKLSLEKYQPIFEEQEVDMEAFLTLTDGDLKELGIKTDGSRQQILAAISELNAG

Variants of: B1
Experiment: abundance fitness (aPCA) (normalised: wild type 0, dead -1); higher = more abundant; growth selection in yeast, the domain comes from the species named
Conditions: Homo sapiens

Abundance fitness: each site, then its substitutions
R53: I -0.098, K -0.078, L -0.098, M -0.167, N -0.075, P -0.056, Q -0.058, S -0.095, T -0.042, V 0.025, W -0.035, Y -0.261
K54: A -0.039, D -0.031, E -0.046, F 0, G -0.059, H -0.118, I -0.018, L -0.106, N 0.013, P -0.072, Q -0.071, R -0.083, S 0.013, T 0.038, V -0.065, W -0.194, Y -0.032
N55: A -0.064, C -0.032, D 0.017, E -0.082, F -0.093, H -0.038, I 0.009, L -0.021, M -0.096, P -0.144, Q 0.013, R -0.015, S -0.051, T 0.015, W -0.085, Y -0.155
C56: R -0.358, Y -0.562
P57: A -0.04, C -0.042, D 0.061, E -0.048, F -0.016, G -0.062, H -0.002, I -0.168, K 0.006, L -0.142, N -0.018, Q -0.09, R -0.115, S -0.051, T -0.082, V -0.135, W -0.027
A58: C 0.05, D -0.085, E -0.12, F -0.082, G -0.051, I -0.827, K -0.044, L -0.175, M -0.141, N -0.03, P -0.117, Q 0.035, R -0.033, S 0.012, V -0.446, W -0.102
C59: D -0.626, E -0.955, F -0.788, G -0.917, H -0.449, I -0.955, K -0.972, L -0.658, M -0.913, N -0.711, P -0.615, Q -0.957, R -0.801, S -0.762, T -0.654, W -0.855, Y -0.995
L61: A -0.315, C -0.843, D -0.774, E -0.214, F -0.031, G -0.566, H -0.233, I -0.155, K 0.021, N -0.338, Q -0.005, R -0.205, S -0.471, T -0.361, V -0.101, W -0.004, Y 0.04
Q62: A -0.013, C -0.002, E -0.054, F -0.16, G -0.028, H 0.006, K 0.046, L 0.012, M 0.026, N 0.033, P -0.887, R -0.045, S -0.049, T -0.052, V -0.022, W -0.059, Y -0.121
K63: A -0.075, D -0.318, E -0.16, F -0.192, G -0.104, H -0.099, I -0.101, L -0.092, M -0.074, N -0.058, P -0.754, Q -0.134, R -0.082, S -0.104, T -0.024, W -0.204, Y -0.137
C64: A -0.028, D -0.716, E -0.851, F -0.466, G -0.02, H -0.821, I -0.415, K -0.885, L -0.351, M -0.017, N -0.886, P -0.869, Q -0.315, S -0.113, T -0.35, V -0.587, W -0.523, Y -0.452
L65: A -0.05, D -0.051, E 0.031, F -0.01, G -0.051, H 0.032, K -0.107, M -0.052, N -0.058, Q 0.018, R -0.055, T -0.037, V -0.087, W -0.035, Y -0.001
Q66: A 0.011, C -0.023, D 0.018, E 0.081, F -0.019, G -0.044, H -0.045, I -0.029, L -0.112, M -0.065, P -0.697, R -0.014, T -0.051, V -0.039, W -0.029, Y -0.094
A67: C -0.03, D -0.653, E 0.092, F -0.121, G -0.076, H -0.026, I -0.076, K -0.144, L -0.002, M 0.055, N -0.084, Q -0.17, R -0.053, W -0.055, Y -0.264
G68: A -0.382, D -0.164, E -0.146, F -0.77, H -0.381, I -0.266, K -0.217, L -0.484, M -0.211, N -0.152, P -0.451, Q -0.153, R -0.172, S -0.222, T -0.423, V -0.518, W -0.447
M69: A -0.058, C -0.128, D -0.293, E -0.307, F -0.239, G -0.235, H -0.617, K -0.261, N -0.523, Q -0.262, R -0.421, S -0.341, T -0.353, W -0.427, Y -0.493
N70: C -0.154, D 0.014, E -0.035, F -0.07, G -0.082, H -0.031, I -0.02, K 0.058, L -0.089, M -0.044, P -0.021, Q -0.019, R -0.014, S 0.034, T -0.04, V -0.011, W -0.087, Y -0.009
G72: C 0, D 0.029, E -0.036, F -0.134, H 0.032, I -0.02, K -0.048, L -0.021, M -0.042, P 0.011, Q 0.053, R -0.065, S -0.009, T -0.115, V 0.012, W -0.124, Y -0.074
R74: A 0.027, C 0.005, D -0.003, E 0.056, F -0.088, G -0.022, I -0.042, K 0.02, L -0.061, M -0.015, N -0.011, P -0.03, Q -0.079, S -0.001, T 0.138, V 0.026, W 0, Y -0.031
K75: A 0.059, C -0.038, D -0.057, E 0.055, F -0.167, G -0.024, H 0.077, I -0.213, L -0.056, M -0.025, N -0.092, P 0.011, Q 0.05, S 0.065, T 0.014, V 0.034, W -0.007, Y -0.051
S76: C -0.128, D -0.031, E -0.044, F -0.119, G -0.076, H -0.051, I -0.198, K -0.654, L -0.012, M -0.084, N -0.071, P 0.007, Q -0.096, R -0.116, T 0.01, V -0.173, W 0.122, Y -0.075

Variants of: B2
Experiment: as above
Conditions: Homo sapiens

Abundance fitness of substitutions, site by site:
D1: A -0.023
